What is called Kd is the constant that tells how readily two partners part at equilibrium. A lower Kd goes with tighter binding. The stoichiometry N is the number of molecules, sites or subunits per partner or assembly.

For test [1], the target named is truncated Importin α1 (residues 71–497) (UniProt P52292). Put plainly: ITC; MicroCal iTC200, 25 °C; 1.5 mM TAF8 peptide injected into 39 μM Importin α1; 25 mM Tris-HCl pH 8.0, 150 mM NaCl, 1 mM β-mercaptoethanol; one-site model; duplicates. For orientation: ITC needs no label: the signal is the heat of the interaction.
Test [2] concerns the target recombinant human TAF2, full length (human). Put plainly: native MS; TAF2–8–10 in 500 mM ammonium acetate pH 7.5, Q-ToF II, collision-induced dissociation.
Test [3] shares this target. Put plainly: AUC; sedimentation velocity, absorbance at 280 nm, 42,000 r.p.m., 10 °C; c(s) analysis with Sedfit.
For test [4], the target named is recombinant human TAF8, full length (human) (UniProt Q7Z7C8). The description is as above.
The target of test [5] is recombinant human TAF2, full length (human). Put plainly: SPR; BIACORE 3000, 25 °C; TAF2 amine-coupled to CM5 (2,500 RU); MBP–TAF8 analytes at 500 nM; 25 mM HEPES-NaOH pH 7.0, 300 mM NaCl, 0.01% NP-40. In general terms: In SPR one partner is held on a chip, and binding of the other changes the refractive index at the surface.

In test [1], “TAF8 NLS peptide used for ITC (printed as residues 288–310)” yielded a Kd of 10.4 µM, a dH of -18.5 kcal/mol and a stoichiometry N of 1.
For “TAF8–10 complex (full-length TAF8 and TAF10) (from UniProt Q7Z7C8-1 1-310)”, the stoichiometry N in test [2] and in test [3] was 1 in each case.
With “recombinant human TAF10, full length (natural protein)”, the stoichiometry N in test [4] is 1.

B1: MBP–TAF8 (residues 200–310) (domain or fragment)
chain: TQSLFKDDVSTFPLIAARPFTIPYLTALLPSELEMQQMEETDSSEQDEQTDTENLALHISMEDSGAEKENTSVLQQNPSLSGSRNGEENIIDNPYLRPVKKPKIRRKKSLS
Take B1: in test [5], the maximal association level is less than 10 RU.

B2: MBP–TAF8 (residues 141–310) (domain or fragment)
chain: PHPPHIPSHFPEFPDPHTYIKTPTYREPVSDYQVLREKAASQRRDVERALTRFMAKTGETQSLFKDDVSTFPLIAARPFTIPYLTALLPSELEMQQMEETDSSEQDEQTDTENLALHISMEDSGAEKENTSVLQQNPSLSGSRNGEENIIDNPYLRPVKKPKIRRKKSLS
For the molecule B2, in test [5], the maximal association level came out at 40 RU.

B3: MBP–TAF8 (residues 105–310) (domain or fragment)
chain: DTLPAYAKRSQRMVITAPPVTNQPVTPKALTAGQNRPHPPHIPSHFPEFPDPHTYIKTPTYREPVSDYQVLREKAASQRRDVERALTRFMAKTGETQSLFKDDVSTFPLIAARPFTIPYLTALLPSELEMQQMEETDSSEQDEQTDTENLALHISMEDSGAEKENTSVLQQNPSLSGSRNGEENIIDNPYLRPVKKPKIRRKKSLS
For the molecule B3, in test [5], the maximal association level was 85 RU.

B4: MBP–TAF8 (residues 105–260) (domain or fragment)
chain: DTLPAYAKRSQRMVITAPPVTNQPVTPKALTAGQNRPHPPHIPSHFPEFPDPHTYIKTPTYREPVSDYQVLREKAASQRRDVERALTRFMAKTGETQSLFKDDVSTFPLIAARPFTIPYLTALLPSELEMQQMEETDSSEQDEQTDTENLALHISM
Consider B4, for which the maximal association level in test [5] is less than 10 RU.

These data come from publication PMC4309443.
